We go through two substances from article PMC3032881.

Experiment [1] addresses HLA A*0201 on the surface of TAP deficient T2 cells (human (endogenous in T2 cells)). Nature of the experiment: flow cytometry on cells; T2-binding assay: TAP deficient T2 cells with peptide at 100, 50, 10 and 1 μM in AIM-V, 10 min 37 °C, room temperature overnight, 2 h 37 °C; surface HLA A*0201 stained with anti-human HLA A*0201:RPE; MFI fitted (log(agonist) vs. response) to logEC50.

Experiment [2] addresses soluble recombinant HLA A*0201 (α chain tagged with a biotinylation sequence, with β2m). In words: SPR; real time pMHC stability assay, BIAcore 3000, CM5 chip; ~500 RU of biotinylated refolded pMHCI immobilised on streptavidin; flow 10 μl/min for 15,000 s; Langmuir dissociation analysis converted to half-life.

On to NY-ESO-1 157-165 peptide …, for which, in experiment [1], the LogEC50 was -3.53 M. In experiment [2], the half-life was found to be 8.9 h and the koff amounted to 2.2e-05 s⁻¹.
For PSA 178-187 peptide …, in that order: -4.3 M, 16.9 h and 1.1e-05 s⁻¹.
